Measurements as given in article PMC3570234 (Molecular pharmaceutics, 2012).

Molecular target: the molecule itself
Assay: MALDI-ToF MS

B1: Superoxide dismutase 1 (SOD1) from bovine erythrocytes (enzyme)
chain: not shown
**Q.** Does B1 bind?
**A.** Result: binds
